From ChEMBL document CHEMBL1250451, “Mechanistic insights into a Ca2+-dependent family of alpha-mannosidases in a human gut symbiont” (Nat Chem Biol, 2010)

Tests used:
Format in all cases: protein assay
[1] = substrate: O=[N+]([O-])c1ccc(O[C@H]2O[C@H](CO)[C@@H](O)[C@H](O)[C@@H]2O)cc1; assay: Ratio of Kcat to Km for Bacteroides thetaiotaomicron GH92 alpha-mannosidase GH92 alpha-mannosidase 2948 assessed as mannose release after 16 hrs by HPLC
[2] = substrate: O=[N+]([O-])c1ccc(O[C@H]2O[C@H](CO)[C@@H](O)[C@H](O)[C@@H]2O)cc1; assay: Ratio of Kcat to Km for Bacteroides thetaiotaomicron GH92 alpha-mannosidase GH92 alpha-mannosidase 3858 assessed as mannose release after 16 hrs by HPLC
[3] = substrate: O=[N+]([O-])c1ccc(O[C@H]2O[C@H](CO)[C@@H](O)[C@H](O)[C@@H]2O)cc1; assay: Activity of Bacteroides thetaiotaomicron GH92 alpha-mannosidase GH92 alpha-mannosidase 3858 assessed as mannose release after 16 hrs by HPLC
[4] = substrate: O=[N+]([O-])c1ccc(O[C@H]2O[C@H](CO)[C@@H](O)[C@H](O)[C@@H]2O)cc1; assay: Ratio of Kcat to Km for Bacteroides thetaiotaomicron GH92 alpha-mannosidase GH92 alpha-mannosidase 3963 assessed as mannose release after 16 hrs by HPLC
[5] = substrate: O=[N+]([O-])c1ccc(O[C@H]2O[C@H](CO)[C@@H](O)[C@H](O)[C@@H]2O)cc1; assay: Activity of Bacteroides thetaiotaomicron GH92 alpha-mannosidase GH92 alpha-mannosidase 3963 assessed as mannose release after 16 hrs by HPLC
[6] = substrate: O=[N+]([O-])c1ccc(O[C@H]2O[C@H](CO)[C@@H](O)[C@H](O)[C@@H]2O)cc1; assay: Activity of Bacteroides thetaiotaomicron GH92 alpha-mannosidase 1032 assessed as mannose release after 16 hrs by HPLC
[7] = substrate: O=[N+]([O-])c1ccc(O[C@H]2O[C@H](CO)[C@@H](O)[C@H](O)[C@@H]2O)cc1; assay: Ratio of Kcat to Km for Bacteroides thetaiotaomicron GH92 alpha-mannosidase 1032 assessed as mannose release after 16 hrs by HPLC
[8] = substrate: O=[N+]([O-])c1ccc(O[C@H]2O[C@H](CO)[C@@H](O)[C@H](O)[C@@H]2O)cc1; assay: Activity of Bacteroides thetaiotaomicron GH92 alpha-mannosidase GH92 alpha-mannosidase 1878 assessed as mannose release after 16 hrs by HPLC
[9] = substrate: O=[N+]([O-])c1ccc(O[C@H]2O[C@H](CO)[C@@H](O)[C@H](O)[C@@H]2O)cc1; assay: Ratio of Kcat to Km for Bacteroides thetaiotaomicron GH92 alpha-mannosidase GH92 alpha-mannosidase 1878 assessed as mannose release after 16 hrs by HPLC
[10] = substrate: O=[N+]([O-])c1ccc(O[C@H]2O[C@H](CO)[C@@H](O)[C@H](O)[C@@H]2O)cc1; assay: Ratio of Kcat to Km for Bacteroides thetaiotaomicron GH92 alpha-mannosidase GH92 alpha-mannosidase 3130 assessed as mannose release after 16 hrs by HPLC
[11] = substrate: O=[N+]([O-])c1ccc(O[C@H]2O[C@H](CO)[C@@H](O)[C@H](O)[C@@H]2O)cc1; assay: Activity of Bacteroides thetaiotaomicron GH92 alpha-mannosidase GH92 alpha-mannosidase 3130 assessed as mannose release after 16 hrs by HPLC

B1: Alpha-1,2-mannosidase (BT_2948) (Bacteroides thetaiotaomicron), Q8A3K6 (protein)
chain: MKMKLLILAVLPFLTPINMNSQEEKASWVQYVNPLIGTEVWQSGVAVAGHEDPSGYTFPGVTEPFGMTEWTAHTLESKHAGTLHHRVPYWYKHNYISGFMGTHYPSGAVMFDYGAVELMPVVGQLKCRPEERSSSFTHITEKSKPHFYEVMLDDYQVKAQLSATKTSAILQFTYPQSDSAYVVVDAMPSMFTAGAPGYIHIDPVRKEISGKSIQSARGYRETGYFVVRFDKDFDSFGTFNLNNDYPEVIEEKYLFTQKEGKWVNGLKGIYTQDSKGVGHLRSEKIDPVIDFDWDWYKPADDFSFNDYQVTWSGKLKAPSTGEYTLGIQADDGARLYINGELLIDDWKSHSFSYQPTQKKISLEAGKMYDIKLEYYQHEWSSRIKLSWIRPDKKSSTSLLTGNRHLESSTKIGGYIRFKTGKNEVIKAIVGTSFISVEQARINLEREIGAKSMETISAQTEALWNKELSVIDLPGATEQDKIVFYTALYHSFLLPRSLSEDGKYRSPFDGKVHKGISFTDYSIWDTFRATHPLFVLLKPDFAGDLITGLLHAYDEGGWLPKWPNPGYTNCMMGTHSDAIIADAYVKGVRNFDVEKAKKAVLKNAYEKGNHIAWGRLGIMDYERLGYVPVDKYGESVARTMEFAYDDYCLSRFFAEKGEPDLSDKLGKRSKNFRNVLDKETKMVRARKADGSWSNPEDYDISVWSGFNPKGVYNYKKNYTLFVPHDVPELIRFLGGTDSLAVFMDELFDKDIYYVGDEFVMHAPYMYNLCKRPWMTQKRIYDIVNKYYLPTPSGLPGNDDCGQLSSWYIFSAMGFYPMCPASIEYQLGVPCLPGFVLHLPQNRTFTIKTKNFGKGNCYVRAVYLNGKPHRSSVITHSDIINGGEILFELTDKPAYNWFQ
[1]
  kcat/Km: 42.7 M⁻¹ s⁻¹

B2: Alpha-1,2-mannosidase (BT_3858) (Bacteroides thetaiotaomicron), Q8A113 (protein)
chain: MMMNRLNIKRTVGSCLMAMAFFSCTHTDQTPTKDFVDYVNPYIGNISHLLVPTYPTVHLPNSMLRVYPERGDYTSDRVNGLPVVVTSHRGSSAFNLSPVQGEVSRPIVSYSYDLENITPYSYSVYLDEADIQVEYAPSHQAGIYHISFGTEGDNALVVNTKNGKLVAEEKGVSGYQVIDNTPTKIYLYLETSQLPLRKGVLADGKVDMESKEGSAIALYYGSEKNLNLRYGISFISAEQAKKNLQRDITTYDVKAVADAGRRIWNKTLGKIVIEGGSEDEKEIFYTSLYRTYERMINLSEDGKYYSAFDGKIHEDGGVPFYTDDWIWDTYRATHPLRILIEPQKELDMIRSYIRMAEQSDRRWMPTFPEVTGDSHRMNGNHAVAVIWDAYCKGLKDFDLEAAYEACKGAITEKTLLPWLRCPLTELDKFYQEKGFFPALNPGEEETCKAVHSFERRQAVAVMLGNCYDNWCLAQIARTLNKTDDYKKFMRMSYTYRNVYNAETGFFHPKNKDGKFIEPFDYRYSGGQGARGYYGENNGWIYRWDVQHNPADLIALMGGQASFIERLNQTFNEPLGRSKFDFYHQLPDHTGNVGQFSMANEPCLHIPYLYNYAGQPWMTQKRIRVLLNQWFRNDLMGVPGDEDGGGMTAFVVFSMMGFYPVTPGSPTYNIGSPVFQSAKMEVGDGHYFEIIAENYAPDHKYIQSATLNGTPWNKPWFSHADIQNGGRLVLQMGDKPNKKWGIASDAVPPSSESLPE
[2]
  kcat/Km: 1.57 M⁻¹ s⁻¹
[3]
  Km: 270 µM
  kcat: 0.000417 s⁻¹

B3: Glycoside hydrolase family 92 (BT_3963) (Bacteroides thetaiotaomicron), Q8A0Q8 (protein)
chain: MNKMKKKVLMMTMAAVTLSAVAQQPVDYVNPIIGTNGMGHTFPGACTPFGWVQLSPDTDTIPHNVNGAYQKNAYEYCAGYQYRDKTIVGFSHTHLSGTGHSDLGDILLMPAVGDVKLNPGRADHPEEGYRSRFDHATEKATPGYYEVMLDDYGIKAQLTATQRTGVHKYTFPKGKDGHLILDLVHGIYNYDGKVLWANLRVENDTLLTGYRITNGWARTNYTYFAISLSQPIKDYGYKDKEKVLYNGFWRRFKLEKNFPEITGRKIVAYFNFETAKDPELVVKVALSAVSTEGAVKNLRAEASGKSFEQLAEAARTDWNNELDHFEIEGTPDQKAMFYTSLYHTMINPSVYMDVDGSYRGLDHNIHQAKGFTNYTIFSLWDTYRAEHPFLNLVKPERNADMVESMIKHEQQSVHGMLPIWSLMGNENWCMSGYHAVSVLADAITKGVFSNVDEALSAMVSTSTVPYYEGVADYMKLGYIPLDKSGTAASSTLEYAYDDWTIYQTALKAGNKEIADTYRKRALNYRNIYDTSIGFARPRYSDGTFKKEFDVLQTYGEGFIEGNSWNFSFHVPHDVFGMIDLMGGEKTFVQKLDELFSMHLPEKYYEHNEDITEECLVGGYVHGNEPSHHVPYLYAWTSQPWKTQYWLREILNKMYKNDINGLGGNDDCGQMSAWYLFSVMGFYPVCPGTDQYVLGAPYLPYLKLTLPNGKTLEIKAPGVSDKKRYVQSLKLNGESYDKMYITHEDILKGGVLEFKMSASPNKRRGVSVQDKPYSLTNGIN
[4]
  kcat/Km: 0.567 M⁻¹ s⁻¹
[5]
  Km: 790 µM
  kcat: 0.00045 s⁻¹

B4: Alpha-1,2-mannosidase family protein (BT_1032) (Bacteroides thetaiotaomicron), Q8A8Y5 (protein)
chain: MRRILLTCTLAFTLLPVFGGEGKAPPMDKEKSLLIDYVDPFIGTTNFGTTNPGAVCPNGMMSVVPFNVMGSADNTYDKDARWWSTPYEHTNCFFTGYSHVNLSGVGCPELGSLLLMPTTGELNVDYKEYGSKYKDEQASPGYYSNYLTKYNIKTEVSATPRTGIARFTFPKGESHILLNLGEGLTNESGAMLRRVSDSEIEGMKLLGTFCYNPQAVFPIYFVMRVNKVPATTGYWKKQRPMTGVEAEWDRDQGKYKLYTRYGKEIAGDDVGAYFTFETEEGEQVEVQMGVSFVSIENARLNLDKEQSGKNFEQVLSDARAQWNDDLSRITVEGGTDAQKTVFYTALYHLLIHPNVLQDVNGEYPAMESDQILTTKGTRYTVFSLWDTYRNVHQLLTLVYPERQMEMVRTMLDMYREHGWFPKWELYGRETLTMEGDPSIPVIVDTWMKGLRDFDVDLAYEAMYKSATLPGAENLMRPDNDDYMSKGYVPLREQYDNSVSHALEYYIADFALSRFADALGKKKDAEMFYKRSLGYKHYYSKEFGTFRPILPDGTFYSPFNPRQGENFEPNPGFHEGNSWNYTFYVPHDVYGLAKLMGGKKPFVNKLQMVFDEGLYDPANEPDIAYAHLFSYFKGEEWRTQKETQRLLDKYFTTKPDGIPGNDDTGTMSAWAIFNMIGFYPDCPGLPEYALTTPVFNKVTIRLDPKWYKENELVIESNRTGSETLYINKVLLDGKKFNKYRITHDELVHGKRLIFDLK
[6]
  Km: 1700 µM
  kcat: 0.006 s⁻¹
[7]
  kcat/Km: 3.5 M⁻¹ s⁻¹

B5: Alpha-1,2-mannosidase (BT_1878) (Bacteroides thetaiotaomicron), Q8A6K3 (protein)
chain: MIIMKRKSPVMAVALAGLFMYTSCSPTEQAETKDYTQYVNTFIGAADNGHTFPGACYPFGMIQTSPVTGAVGWRYCSEYTYQDSLIWGFTQTHLNGTGCMDLGDILVMPVTGTRARAWDAYRSHFPKDKEAATPGYYTVELSDPQVKAELTASIHAALHRYTYHKADSASLLIDLQHGPAWREEQYHSQVNSCEVNWEDAQTLAGHVNNTVWVDQDYFFVMKFNRPVIDSLYLPMGETEKGKRIIATFDLKPGDELMMKVALSTTSVEGAKKNLQAEIPDWNFDGVKLAAHDEWNSYLSRMDVEGTDDEKTNFYTCFYHALIQPNQISDVDGMYRNAADSIVKAGTGTFYSTFSLWDTYRAAHPFYTLMVPERVDDFVNSLIEQGEVQGFLPIWALWGKENFCMIGNHGVSVIAEAYRKGFRGFDAERAFNMVKKTQTVSHPLKSDWEVYTKYGYFPTDLTKAESVSSTLESVYDDYAAADMARRMGKEEDAAYFAKRADYYKNLFDSQTNFMRPRKADGTWKSPFNPSDVGHAESTGGDYTEGNAWQYTWHVQHDVPGLIALFGGEEPFLNKLDSLFTVKLETTQADVTGLIGQYAHGNEPSHHVTYLYALAGRPERTQELIREIFDTQYKNKPDGLCGNDDCGQMSAWYMFSAMGFYPVDPVSGDYVFGAPQLPKIVLHLADGKTFTVIAENLSKEHKYVDSITLNGEPYTKNTISHEDILKGGTLVYKMK
[8]
  Km: 900 µM
  kcat: 0.00133 s⁻¹
[9]
  kcat/Km: 1.48 M⁻¹ s⁻¹

B6: Alpha-1,2-mannosidase, putative (BT_3130) (Bacteroides thetaiotaomicron), Q8A325 (protein)
chain: MKKLLLSVCAFSLTLATLQAGEITKYVNPFIGTGAIDGGLSGNNYPGATSPFGMIQLSPDTSEAPNWGDASGYDYNRNTIFGFSHTRLSGTGASDLIDITLMPTSSGRTSSAFTHDEEKARPGYYQVMLKDENINAELTTTQRNGIHRYQYPAGKDAEIILDMDHSADKGSWGRRIINSQIRILNDHAVEGYRIITGWAKLRKIYFYMEFSSPILTSTLRDGGRVHENTAVINGTNLHGCFRFGQLNGKPLTCKVALSSVSMENARQNMEQEAPHWDFDRYVAAADADWEKQLGKIEVKGTEVQKEIFYTALYHTMIQPNTMSDVNGEYMAADYTTRKVANNETHYTTFSLWDTFRASHPLYTLLEPERVTDFVKSMIRQYEYYGYLPIWQLWGQDNYCMIGNHSIPVITDAILKGIPGIDMEKAYEAVYNSSVTSHPNSPFEVWEKYGFMPENIQTQSVSITLEQAFDDWCVAQLAAKLNKDADYQRFHKRSEYYRNLFHPKTKFFQSKNDKGEWIEPFDPYQYGGNGGHPFTEGNAWQYFWYVPHNIQALMELTGGTKAFEQKLDTFFTSTYKSEQMNHNASGFVGQYAHGNEPSHHVAYLYNFAGQPWKTQKYVSHILNTLYNNTSSGYAGNDDCGQMSAWYVFSAMGFYPVNPADGRYIIGSPLLDECTLKLAGNKEFRIRTIRKSPEDIYIQSVTLNGKKHKDFFITHQDIMNGGTMVFKMGKKPSGWGK
[10]
  kcat/Km: 112000 M⁻¹ s⁻¹
[11]
  Km: 510 µM
  kcat: 56.7 s⁻¹
